# Results reported in the domain aggregation screens of Martell et al. (2025).
# Assay: soluble fraction after stress (log2 fold change); higher = more stays soluble; pooled small domains, quantitative proteomics
# Conditions: stress: 50 degC
# Summary of the method: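 Custom libraries of small protein domains were pooled and measured in a high-throughput format, with quantitative proteomics as the read-out. Each library was stressed at 50°C. The value is the log2 fold change in the amount of each protein that stays soluble after stress, used as a measure of aggregation propensity; higher values mean more of the protein stays soluble.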
row,Sequence,soluble fraction (log2)
1,HMQYQIITENGKQYYLYTVQKSEGFYSIGKRFEITNDEIIKANPEAALGLKLGQVLKIPVYK,-0.331
2,HMTVKKEIAKVKPTPLGWLRVRETPSLNGAEITKVNTGESYDVLDKETGWIKIKVSETVEGWVSDAYIELS,0.236
3,HMLLLASTPAEQTIIQLLAEGWRDGDQLQQRSHLSAADFSTALTMLEVNGSIKPLGANHWALTH,-0.919
4,HMHGERVVTAGQTVRVVFTSNGLQVSSEGKALAAGAVGDDIQVRAASGKVIRGTVTGPGVVQV,0.231
5,HMRQFEPVEGYNPYADKNELHGYEYWGAKFADSRSPEETAWIKQQIDDENEDRRFISEAGLA,-0.0012
6,HMDGRIRFRHAALHDPDVAARLHDYLTTSLPGVRSARVNSQTGSLLLEYDPEVLDRSTLLDLAARAESLL,-0.219
7,HMNADLDIQNVNGNTPLWEAVMRYRGDGFFIEQLLKNGANPDIKNNYGVSPKSLARTIANYDVRRFFN,-0.137
8,HMGIVVDGTMTLEGVAERYGMSVGELARVIGVPPEYSNERLGRLRKSYEFEMDDIRIYIIQKQ,-1.31
9,HMARAGKLAQDMAVWTKETMLNTERNFISLRHFKRELLRRTLAPGESEQTVRAMEEAGYIQVKDGLVFPIK,-1.74
10,HMKKNLELGLLPHEVKSILGEPDFIDTITDIDGIRYDMWSYTKLNVTKRLYFEDLFLVRMEE,-1.43
11,HMKELVAGQTVRVHHSIGFGQTGTVTALNSLKTTLPNGLRTNTASILFQNNEKVVLPISNFDIIES,-0.139
12,HMGLDQNTLDRVDDINDTLATGIEIGPETRGTIEELNETLANGLKAGFDEETLARVDELLRVVEDGLK,0.0149
13,HMGHEISLNNSRFLKLLNKTKISISNDDTRHYLNGIFLHLTEAHGRQFLTGVATDSHRLSSSSLEID,-0.0045
14,HMFKMRVNGKEVIGMAITAKPQANPIDVADEIKKFVIDANTKLPSTMKLEVLYDATGIFRASISEVIS,-0.273
15,HMKDYKSSLQERVQAVGGGQLIYRVNREEGPDHSKTFYMDLFLGDRLIGTGSGRNKKQAEQQAAKEAIERG,0.0941
16,HMSETIVFGQQKAINTLSSEAGLSSAELNNYLKKRYQRPLFQLTVSEGADLIQGFQDGTLTKASITQYVSQ,-0.0548
17,HMKELTYSDFRKAYPDIQGNLFGMAERYITALDWTEVAAKVETDEELRKERDIFYLVKTYIRKYVQ,-0.487
18,HMLGKNEAKEYKVAYGDIGKMPALIMGLVPLPKPPVVDERLRTLYVTATPEQHREIEAIMNRI,0.156
19,HMNQASLTYSEFIANVESKAITRVTISGDTISGILADGKPFQTIYPMADLELLPILRRSGVDINVKEVQ,-0.117
20,HMDFDPDVPSREDILQAFRDSKPPLTVNALISEFGLSRDASIVGLERRMGAMQRDGQLEQTPSGWQLSV,-0.158
21,HMKIHNSIREITDFDRKQNSNIPSDAKYRIVFYTPQGNKTIIPEELQGLQYYRSKELAEIALNKKLNSN,-0.132
22,HMENPVPVIITDQNFQPLLWKNVGVPTDTIFHELSPENQKKLENLMKTMVQMPLTDDGRISGYAYYSK,-0.195
23,HMTKDYVVIYEGLAQTEAVEILGKLQEMGVSAKVDHNDSILVLKDEEDQIRMALATEGYPKS,-0.0917
24,HMESIEGMYKISLLRKQGNAYVIFEDENKEAVEHIFPEKPTALELGTKVIEMFEYKERYDGLI,-0.366
25,HMDNLKELDEILETYGKKKGYLITILQKAQDAYGYISIDIMNRISEFTGIKVAKIYGVATFYAQFRL,0.146
26,HMIDAAHLEKAILSLPEGARAVFVLIETEGFAHREVAELLGISEGTSKSQLNYAKKRLREILV,-0.311

row,Sequence,soluble fraction (log2)
1,HMTERIRLHDDIGSWVEKHGATRSALIPVLQGIQRSYNEISEYAMQEVADRLDIHPVEVYSVVSFYSF,-0.0419
2,HMNGAVAEQARKQLMAALKASEFIAEEKLDEWLDALALPEDKRTAIVDAVDELDYEEAISELEN,0.0153
3,HMTPTITNALEEAEKAVSEVQEGKKEIELTPQGAYIRHLQHAIADRYGISSTSTGRDPKRKVIIY,-0.108
4,HMENTSPMTPEQSKALMAYLTKRHGDSREAYLSELSQFFGRPLSSSRELTKADVSEFLNAIN,0.161
5,HMRIASANAIYDELLNKRDDAKLAELKQEDINLYALYILQNGSADERAALENTQGIDVVLKEIINLQNG,-0.309
6,HMDATGDPIADRILQALQLGELTRTQVNNVFQRHLAAARISQALNFLRSLKRADMRMEETAGRSGEVWFAI,-0.341
7,HMSNSGFVKNNGKTEFYDASGRQAKSSWINISGKWYYFDLNGTMVTGWQRISNKWYYFLEDGSK,0.0383
8,HMALDSQEVGYNIEARGARPVVAQLGKAGQFSAVENSIRLGDDNWIALAPKLAGGGNAGFTAGIKSALS,0.0371
9,HMAPLATLEADGNGAVKLPNLAGHAIREVAAALGGANLALIPIGSGTSWKQNPAPGTILHKGDTVTVYF,-0.0832
10,HMNLAPLLTEYVQINFRRASEMKTYLEQANLISERGFLLADDQTNILMVRETGASIEEIRRTLNRF,-1.77
11,HMKTSTGSAMYLTLDLAEKYAGQAFTLVHKKADGTFEYLYATADVDGKVKFGPVYELSPFMLVKGQL,-0.291
12,HMIVNEQEQTFIKAMRDDDFNTILELKMKGYQPSDNVLKSLQPDISSTTFIAAAKIFQMERMLK,0.218
13,HMSSEITYDKFIEMVDKDQVKEVTLQSGVLTVVPKIQKSYYQNASYKVNQMEDVDALTKRLEGTGIVFHY,-0.0487
14,HMATETMGMIIRRLRREHGLTQEELAASIGVTAQAVSKWEKDLGMPDISQIVPLAGAFNVRTDVLFGLE,-0.98
15,HMAGWMPGGTNPAEPGRFAVLMDVDDSDAYKHMFLRWNGHAWEFERTRVLVKMEPSWWMRLPDDPEKP,-1.99
16,HMIDFDHADIERLWNSIIHYVPERQKLDFAIDFIKSLEDIGVEHDVLRGSAELDPKLEEAVNTVFE,-0.52
17,HMEHAETDTRERILVVAERLFRQLGYQKTTVADIAKELRMSPANVYRFFDSKKSIHEGVARTL,-0.228
18,HMGDITALMPGKVIQIIVKEGQEIKVGDPLIVIESMKMENTISSEVNGTIKSINIQIDDNVQFDQVLFTV,-2.1
19,HMEYRVRDKMTDILELLTEHRGRIALRDAFPTGTREELLAAFLALLELTKMQTVIVYQDRLYDDIQIVMK,-0.204
20,HMQSAEMTLDREGQPVQVRVELTGNEARITFLSDQEQTREALDAGMAQLRELLEQQGMVLAGVTV,-0.0108
21,HMIGRRLKVARASAGLSLRELAARMDGVVTPQAIGKYERNEDMPGSRALMALASALGVSEGYLLSD,-0.831
22,HMNYYYKDNQYWYVGFRYDERLVKEIKRFVGAGYNPENKEWYIPFTLPTVAPLQKWLHDNGFVEGMNYYP,-1.86
23,HMTISGSDLKAQREALNIPLERIAKETRIRLSILQDLEDEEYSELSSSAQTKGFLRLYADYLSSHKQRLG,-0.415
24,HMFINITAITGNNYNTPDAARNALPNTYNKKIGLVFTYRDLTNRYRVYLYNSETSNYIPLDSYM,-3.39
25,HMVTKQKKLVLTIIERSHGHLSAEEIFFRAREEMPNIALGTVYRNLNSLTEEGIVRRITLPGTSDRFDT,-2.79
26,HMSKFSDTLVYLRKRAGFSQQELADKMEVSRSLVGMYESGQRMPSYEMLEALADIFNVNIDFLTGH,-0.418

row,Sequence,soluble fraction (log2)
1,HMKQGKGIIVVDGKLMPEDFNVATLSLDEVESITVLKGEKAVALYGEKAKEREVLLITTQKG,0.423
2,HMVLALRGIVQGGAEPLVILSDGRTSQSLAVGERFLAYEVVEIGRTGVRLRGPEGEIWLAMASF,-0.322
3,HMGTLSLLVQKLMAVGLEGAKASEIVERFDRERIERQINALPSRKIKSSRTGFLIRAIELDIPVE,-2.09
4,HMLTKAEEQVMDYLWKLEKAFVKDILDEFPEPKPAYTTVSTMVRILEKKGMVGYTAYGKNHQYYPL,-1.84
5,HMKGISRVTMELIIDALKKETEPRTVQWIAEKTGLATQTTYRYLQYMVSEQTVEALNVYGKVVSLKAK,-0.314
6,HMQNEQIAFSKFLQEVDSGRVVQVEIQGNNIKGILSDGSKFYTYSPNYPELVGKLSEKGVNIVASPVE,0.0802
7,HMQELVPGKVFEGTVTEMKNGQVTLGLSDGKTISARMEQGVSLAKGQPMLFEVKSNTGEQIAIRPVVL,0.169
8,HMADYSGYLGKKGKVIAPLRPAGTALIDGERVDVVSFGDYIDKDSEIEVVKIEGSKLLVKKY,0.141
9,HMSVDDVALRLEFGPSDAEALAFVHRHGAILSETTDRDTGVVSVHVRLSEADAGRFNQRYGV,-0.183
10,HMDEEDVLNELIRRLALTADDRLLLSLSYEDGLSSRKIATLLETSAATVQRRLAGLHHQLEQALRVMGLA,-0.454
11,HMAISEAERARLQTKIKERNKMARWINTNLNPTSKIRNINPAETVRKLMTQDDADSLERSLDAFMEA,-0.0378
12,HMYLYADIYKKLEEKIKNMEVGEKLPSERAMVQEYGVSRNVLREALVLLSERGLIEIRPGKGSYVTNQQ,-0.436
13,HMSPFAHHLHELRMRHGIRQNELAELIGYDQTYISALEVGLKGPPTPEFVDKLVEGLALSRTEEAALRSAA,-0.482
14,HMAVSTFGRITASSLNVRSGPSTDHEKVGSLAAGRVVELLEESDGWYRIENGYISTEYVTIVDPSQ,-0.355
15,HMSERIITFGEATREAMLEEMRADERVFVYGEDIAKQGGIFGQFAGMKDEFPERVLDTPISETALVGAG,0.0621
16,HMQSLAAKINGYIVAQRTSIAAIAKEIGYSRVTVSRYLAGKYDSDPTGIEAKLAAFLAGQTGEE,-1.75
17,HMQQIAVDLSEFKPRLMRDMSSMLAGLYTHDLDLSSLDFSKVANFTFMFRGAIITGTLKMPKI,0.00375
18,HMDETYRRQLEDLAREHGAEYLHGILREVDPASAEAIHANNIKRVIRALEFYHLSGKKISEHNETERQ,0.158
19,HMGVRVEVDAVTPPGAMASGSVVFSDGESKKWSVDQFGRLAMTGGAPDYKPSDQDVMEFQQQLEQSL,0.054
20,HMSYKDIKEASDTGTYRDEENNIDVKWQKLFNGHNEYFDIEAYRDGERVEINNQQADRYIYLIKQEMD,0.025
21,HMSVPSLVGKTDSEAQSAIKSAGLKVGTVTYQYSDETEKGYVVSQSPYSGNKVNAGSTVNIVVSKGK,-0.0367
22,HMSGHIPGIKIKGVIFFDKGSSSNHIIATTENNSNLKLRVGETVQGAVLKSIHPNHVIFFHHNQLIEVGIG,-2.21
23,HMFTEPQKLVKRILNMLGHRYDDASIQARSDFQASNNYHKVQVKKKRESMEEYTAWLEEMYDAYRIN,-1.43
24,HMYEGNEFSSTGMFREDILAITAVHPMREDAVTELLARSNESEETLEMMIDEELLRRVAYGNHNYYMRRFR,-0.428
